Test results: PMC11512355

Biological target: recombinant porcine astrovirus 4 (PoAstV4) capsid spike protein (porcine astrovirus 4)
Experiment: SEC; Superdex 200 16/600 column in TBS pH 8.0 (10 mM Tris-HCl, 150 mM NaCl), compared with BioRad gel filtration standards

## recombinant porcine astrovirus 4 (PoAstV4) capsid spike protein (domain or fragment)
  stoichiometry N: 2
